Substitutions are numbered along the chain they refer to. Names and notes keep the numbering of the source. Each block holds one binder with its values, some of them ahead of it.
Legend:
[1] = biological target: T1, FcγRIIB (form not stated) (UniProt P31994 43-217, limits assumed); assay: ELISA
T1 construct: also called FcγRIIB (ELISA)
T1 sequence (looked up): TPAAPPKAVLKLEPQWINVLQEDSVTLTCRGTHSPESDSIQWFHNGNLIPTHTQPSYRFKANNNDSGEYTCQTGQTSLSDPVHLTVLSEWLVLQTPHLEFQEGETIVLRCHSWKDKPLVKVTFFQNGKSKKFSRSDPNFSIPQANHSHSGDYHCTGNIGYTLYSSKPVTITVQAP

[2] = biological target: T2, FcγRIIIA (form not stated) (UniProt P08637 17-208, limits assumed); assay: ELISA
T2 construct: also called FcγRIIIA (ELISA)

[3] = biological target: T1, FcγRIIB (form not stated); assay: ELISA; remark: listed apart in the source
[4] = biological target: T2, FcγRIIIA (form not stated); assay: ELISA; remark: listed apart in the source
[5] = biological target: T3, FcγRIIB-Fc fusion protein, soluble dimer: extracellular domain of FcγRIIB fused to the hinge-CH2-CH3 domain … (human, UniProt P31994 43-217, limits assumed); assay: BIAcore, ch4-4-20
T3 construct: extracellular domain; also called FcRIIB-Fc; 2bfcagl; not shown: human IgG2 hinge-CH2-CH3
T3 sequence (looked up): T1 sequence (looked up)
Description: (§1) Following this, the unreacted active esters were “capped off” with an injection of 1M Et-NH2. Once a suitable surface was prepared, ch 4-4-20 antibodies carrying the Fc mutations were passed over the surface by one minute injections of a 20 μg/mL solution at a […] flow rate. […] Next, dilution series of the receptor (FcγRIIIA and FcγRIIB-Fc fusion protein) in HBS-P buffer (10 mM HEPES, 150 mM NaCl, 0.005% Surfactant P20, 3 mM EDTA, pH 7.4) were injected onto the surface at 100 μL/min Antibody regeneration between different receptor dilutions was carried out by single 5 second injections of 100 mM NaHCO₃ pH 9.4; 3M NaCl.
(§2) Binding curves for two different concentrations (200 nM and 800 nM for FcγRIIIA and 200 nM and 400 nM for FcγRIIB fusion protein) were aligned and responses adjusted to the same level of captured antibodies, and the reference curves were subtracted from the experimental curves. Association and dissociation phases were fitted separately. Dissociation rate constant was obtained for interval 32-34 sec of the dissociation phase; association phase fit was obtained by a 1:1 Langmuir model and base fit was selected on the basis Rₘₐₓ and chi² criteria.
(§3) Secondary Screen of Mutants via BIAcore: Mutants that were selected in the above screens were then analyzed by BIAcore to determine the kinetic parameters for binding FcγRIIIA (158V) and FcγRIIB. The method used was similar to that disclosed in Section 7.1, supra.

[6] = biological target: T4, FcγRIIIA 158V, soluble monomer (extracellular region joined to linker-AVITAG) (UniProt P08637 17-208, limits assumed); assay: BIAcore, ch4-4-20
T4 construct: extracellular domain; also called 3aV158; 3A 158V
Description: as §1, §2, §3

[7] = biological target: T3, FcγRIIB-Fc fusion protein, soluble …; assay: BIAcore, Ab on BSA-FITC
Description: as §1, §2

[8] = biological target: T3, FcγRIIB-Fc fusion protein, soluble …; assay: ELISA
[9] = biological target: T5, soluble monomeric FcγRIIIA, the extracellular region of FcγRIIIA joined to the linker-AVITAG sequence (UniProt P08637 17-208); assay: BIAcore, Ab on BSA-FITC
T5 construct: extracellular domain; also called FcRIIIA

T2 sequence (P08637 17-208 F176V limits assumed, form in doubt): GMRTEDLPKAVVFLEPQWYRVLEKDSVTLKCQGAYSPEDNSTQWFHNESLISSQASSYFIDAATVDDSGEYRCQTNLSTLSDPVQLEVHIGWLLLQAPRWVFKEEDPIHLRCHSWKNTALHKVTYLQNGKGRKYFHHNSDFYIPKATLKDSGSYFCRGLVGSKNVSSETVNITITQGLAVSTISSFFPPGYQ
T4 sequence (P08637 17-208 F176V limits assumed): as the sequence (P08637 17-208 F176V limits assumed, form in doubt) above

B1: ch4-4-20 G316D, A378V, D399E (antibody)
heavy: ASTKGPSVFPLAPSSKSTSGGTAALGCLVKDYFPEPVTVSWNSGALTSGVHTFPAVLQSSGLYSLSSVVTVPSSSLGTQTYICNVNHKPSNTKVDKKVEPKSCDKTHTCPPCPAPELLGGPSVFLFPPKPKDTLMISRTPEVTCVVVDVSHEDPEVKFNWYVDGVEVHNAKTKPREEQYNSTYRVVSVLTVLHQDWLNDKEYKCKVSNKALPAPIEKTISKAKGQPREPQVYTLPPSRDELTKNQVSLTCLVKGFYPSDIVVEWESNGQPENNYKTTPPVLESDGSFFLYSKLTVDKSRWQQGNVFSCSVMHEALHNHYTQKSLSLSPGK
fold increase vs WT [1]: 14 x
fold increase vs WT [2]: 1.5 x
ELISA binding, fold vs Wt [3]: 14 X
ELISA binding, fold vs Wt [4]: 1.5 X

B2: ch4-4-20 K334E, T359N, T366S (antibody)
heavy: B1 heavy with D199G, K217E, T242N, T249S, V261A, E282D
binding result [1]: binds
fold increase vs WT [2]: 1.5 x
ELISA binding, fold vs Wt [4]: 1.5 X

B5: ch4-4-20 MgFc63 (S298N, K360R, N361D) (antibody)
heavy: B1 heavy with S181N, D199G, K243R, N244D, V261A, E282D
Koff WT/Mut [5]: 0.67 ratio

B7: ch4-4-20 Mut23 (antibody)
chain 1: not shown
chain 2: DVVMTQTPLSLPVSLGDQASISCRSSQSLVHSNGNTYLRWYLQKPGQSPKVLIYKVSNRFSGVPDRFSGSGSGTDFTLKISRVEAEDLGVYFCSQSTHVPWTFGGGTKLEIKRTVAAPSVFIFPPSDEQLKSGTASVVCLLNNFYPREAKVQWKVDNALQSGNSQESVTEQDSKDSTYSLSSTLTLSKADYEKHKVYACEVTHQGLSSPVTKSFNRGEC
Kd [9]: 70.2 nM
koff [9]: 0.105 s⁻¹
kon [9]: 1.43e+06 M⁻¹ s⁻¹
Kd [7]: 108 nM
koff [7]: 0.107 s⁻¹
ELISA, OD [8]: 0.1 OD

The remaining lines, values ahead:

Koff WT/Mut [5]: 2.29 ratio
Koff WT/Mut [6]: 1.23 ratio
B3: ch4-4-20 MgFc43 (Y319F, P352L, P396L) (antibody)
heavy: B1 heavy with D199G, Y202F, P235L, V261A, P279L, E282D

Kd [7]: 41.3 nM
koff [7]: 0.05 s⁻¹
ELISA, OD [8]: 1.2 OD
B4: ch4-4-20 Mut 10 (P396L, A330S, K288N) (antibody)
heavy: B1 heavy with K171N, D199G, A213S, V261A, P279L, E282D
notes: also called Mut10(0225); K288N, A330S, P396L

fold increase vs WT [2]: 0.4 x
ELISA binding, fold vs Wt [4]: 1.4 X
Koff WT/Mut [5]: 1.3 ratio
Koff WT/Mut [6]: 0.86 ratio
B6: ch4-4-20 MgFc39 (E293V, Q295E, A327T) (antibody)
heavy: B1 heavy with E176V, Q178E, D199G, A210T, V261A, E282D

Koff WT/Mut [5]: 0.62 ratio
B8: ch4-4-20 MgFc66 (A330V, V427M) (antibody)
chain 1: not shown
chain 2: B7 chain 2

From patent publication US20080112961A1 (MacroGenics, published 2008)
